We go through one molecule from paper PMC4657047, “Structure of the Human Factor VIII C2 Domain in Complex with the 3E6 Inhibitory Antibody” (Scientific Reports, 2015).

In this assay the target is T1, human blood coagulation factor VIII C2 domain (human, UniProt P00451).
T1 construct: C2 domain of human blood coagulation factor VIII; pET15b with N-terminal His6 tag and a thrombin cleavage site; also called fVIII C2 domain
As to the kind of experiment: crystal structure; C2 domain/3E6 FAB binary complex formed at 37 °C for 30 minutes with 1.5-fold molar excess of C2 domain, separated on Superdex 75; crystals from 10 mM MES (pH 6.4-6.8), 20% (w/v) PEG 8000; two complexes in the asymmetric unit; 2.61 Å. Conditions: both partners purified.

T1 sequence (P00451 2190-2351): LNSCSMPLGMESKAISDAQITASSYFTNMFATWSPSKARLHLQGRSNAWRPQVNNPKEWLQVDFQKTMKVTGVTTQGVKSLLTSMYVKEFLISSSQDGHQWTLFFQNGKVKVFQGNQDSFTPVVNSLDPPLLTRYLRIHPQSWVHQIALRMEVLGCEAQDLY

B1: 3E6 antigen-binding fragment (FAB) of the classical anti-fVIII C2 domain inhibitory antibody 3E6 (Fab, V domains shown)
VH: QIQLVQSGPELKKPGKTVKISCKASDYTFTDYSLHWVKQAPGKGLKWMGWINTETGDPAYADDFKGRFAFSLETSVRTAYLQINNLKNEDTAIYFCAREDDGLASWGQGTTLTVSS
VL: QIVLTQSPAIMSASPGEKVTMTCSASSTVSYMYWYQQKPGSSPRFLISDTSNLASGVPVRFSGSGSGTSYSLTISRIEAEDAATYYCQHWSSYPLTFGGGTKLELK
notes: heavy chain of the 3E6 FAB is chain A (complex 1) and chain E (complex 2) of PDB 4XZU; light chain of the 3E6 FAB is chain B (complex 1) and chain F (complex 2) of PDB 4XZU; Fab made by papain cleavage of the murine monoclonal IgG; complex 1 (chains A, B) is the more complete model; also called 3E6 FAB; 3E6 antibody
B1: the binding result was “binds”.
